From the domain aggregation screens of Martell et al. (2025) come the findings set out here.

This data set in a line: soluble fraction after stress (log2 fold change); higher = more stays soluble; pooled small domains, quantitative proteomics. The note with it: stress: 75 degC.
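Note: 20 min heating vs room temperature control held 20 min.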

Consider “HMDASVTIEQVERMVQANVSDDVIISQLQGRGAAQNLSTDDIINLTQKGISAEVIKAYQSAG”, for which the “soluble fraction (log2)” value was 0.111. The same measure for “HMDAVLMEYDRLLALELTEDPDVYQDLLDKVREQSLGADGRVTDKYREKFDAVATRFDDYEDNYQW”: -0.113; for “HMDAVQAGKRVLIVDDLIATGGTAKAATDLIEKAGGTVVGFSFVMRLDGLDGLDKLDGKPSSSLIAMP”: 0.193; for “HMDAYMGEAKDEETFAEEYLNDSGLLNEIPESVARYFDIVAYARDLLIGDFSLHDGHVFNMT”: 0.358.

For the sequence “HMDDAFLNKEMLKQALENLNEREKKLIYLRFYEGLTQKEIADRLSLSQMHVSRLLNESLNKLRRKI”, the “soluble fraction (log2)” value was -0.44. With “HMDDATDLPYQEFRTQVSDGQVKIAQFNNNTGKITFESISGDKFKTSGPLELSSDDERLFLENIEDFKFFT” the figure was 0.0939; with “HMDDATDVPYQEFRTQVTSGQVEIAQFNNNTGKISFQSTSGEKFETSGPLELSSDDERLFLENIEDFKFFT”, 0.416. The same measure for “HMDDATIKVNIAAKFLNAGNNLFVDIDTTVLEGRVLLTGLVDTQEVRIDAVRLVWEVEGIREVINEIEIG”: -5.19; for “HMDDATTQLADRLLDLRRKAGYSQEQLADLLGVSRQAISKWEGAQGRPEVDNVVKLAQIYRVSTDFILTGS”: -0.698; for “HMDDAVSHPDAGHIVTVTKVSADGTAEVMYRGASWRAKTADGSPLTAGSARIVRVDGAALVVEP”: 0.0931. With “HMDDDDPDQEIAQYYEKLRAMNPDEETKQKLSDEINKLSKMMYSSQEAMVSRNYLDTVFSLPWHQF” the figure was -0.146.

Turning to “HMDDEELDALKGIPANEYTQEQIKQISEVFHTLQKNEVKDWLNSLQLRNIELPFELRNEVFSQ”, the “soluble fraction (log2)” value came to 0.211. With “HMDDFPLKRGSKGNRVTLLQNALVKKYGAGILPKYGVDGMFGKEVEAALVHAKIPTTINEANYTKIV” the figure was -0.0514.

As to “HMDDFSETLLQYIKEKGGHISLNDKTDAGVIYETFGVSKKTFKKAVGDLYKKRLIVLEDTGIRL”, the “soluble fraction (log2)” value was -0.501. With “HMDDHLSFLAARLPDGASFDTDFDALGIDSFGMIALRAEVEERLGEQIADSDWTKVERPSEILAMLERK” the figure was -0.204; with “HMDDLATAYKAMGVDASISDKDLKRAYRKLMSQHHPDKMIAKGVPADMVAMATEKTQEIQAAYDLIERSR”, 0.203.

For the sequence “HMDDLIIQIELKQEGLEITGLKVLLKEDSVIDEQVKQTIRRKIERFLVNLYGNPNVYVSKFSMGI”, the “soluble fraction (log2)” value was -0.296. The same measure for “HMDDLTTASIKQQLKALIDEENKNKPLSDQKLTDALKAQGIDISRRTVAKYREAMNIPGSSKRKRF”: -0.0771.

For the sequence “HMDDMVLEIGPGIGTMTQYLAEAAGKVVAVEIDRNLLPILQETLADYDNVKVIHADVLSLDLEKLVQEE”, the “soluble fraction (log2)” value is -0.0859.

In the case of “HMDDPDALITDSQLKAIHVLLGKLKIDDNLKHAYIADVLQLKDIPETLKTLTKHQGSTIIERLNLLIKDA”, the “soluble fraction (log2)” value was -0.0192.

Turning to “HMDDPLSQLTPREREVLELMASGASNQGIADALVITVRAVEKYVSSIFGKLGLPSTGSESRRVLAVLTFLR”, the “soluble fraction (log2)” value is -0.178. As to “HMDDPYAGLRQRAYLFLRERDGAVPEEELIEHVFGSSGNPALWRPLLRQVLGADDRLDLRADGYWALRG”, the “soluble fraction (log2)” value is -0.187. With “HMDDSPTARALRTLDLIHNRPGITAAELADRLGVTERAVRRYVLTLRDAGVPVLGTPGRYGGYQVGK” the figure was -0.818. The same measure for “HMDDSVTFSEFVRMVDSGQVESVRITGNEVTGSDSTGNTFRTFVPPQYEGLVNRLVERDVAVTAEE”: 0.149. With “HMDDSVVFSLNAKGIRLTGAGKYGEAIALFDKAIAAKPGLSGLYFNRAEARRLSGDLPGARSDLEQALAI” the figure was -0.416; with “HMDDTRLELTLLGKIHNDEEINKQSHINVNIKNGVILLTGESPRREITERILTLARTFEHTRQIVNQIAT”, 0.0479; with “HMDDVIDVYATYDKSAEGVLSNIQLFSNQKKTTPITPESGKIYIDVEGNYQFRWTGTQYATV”, 0.15. Take “HMDDYRSLRGQEKAAIFLMSLSQEQAAKIFANLDDEEIKEISQAMSSLGTVGSEIIERLFVEFAEQVSS”: the “soluble fraction (log2)” value was -1.21. With “HMDEARLAVASNLIRLRTDAGMTQAELGEKLNYSDKTISKWERAEAIPDAFVLKQIGELFHVSVDFLLRTH” the figure was -2.28; with “HMDEDTWKLYKRAYKKYYARYMKGNMSEEAFKTWAAQAARDRDAAIEQVKAALDENLKAQVIERLKEELNR”, -0.831. With “HMDEEEKGEVEVPNLIGLTRKEAKKTLEEEGLLIETKESLKTNLDDEYEKIKSQLPKAGIKIKQGSTVYVD” the figure was 0.154; with “HMDEGQEHYVKETDLPFYSEADPASSVIFPLVLNQKLIEKERKDDWIRALEPTTGLVGWVLLKSLSPQQLS”, -0.0643; with “HMDEIELLLQDAIQKLPEKQRMVFTLRYYDNLPYEEISKILDMSVSTLKTNYHYAKSKIEQYILDHS”, -1.64. With “HMDEKPPHEALSNREFQVLQLLAQGRSVGQIAQQLTLSANTISTYRARIFDKLGLHNPADLFSYAARHRLT”, the “soluble fraction (log2)” value was -1.19. With “HMDELNFGNFEGTRIFVQRTARKKSIALSIRDGTIVILAPRHIPNQEIQELITTNTDWIRAKLSQHAETKR” the figure was -3.21; with “HMDELVYVPNITGKTVEEARTELQKRDLGLNIAGHQFSDEFGKGRIISQDPAAGSRLKVNRSISVIVSSGQ”, 0.0849; with “HMDENVVLRKVAREAFVIEYVRGIRAIDPGIGGPKLWLMYKREFGDNDTVGRDTFEDILDRNNLKVRI”, -4.06. With “HMDEPADVAIFDGFRQMSEDELKKLYESLNLAMTFKDFLHIQNYFKNEENREPSVTEIRVLDTYWSDH” the figure was 0.0441; with “HMDEPVDRLSPREQEVLALMAEGRSNAAIAHRLSITEKAVAKHINSIFTKLDLPLDEDDHRRVRAVLAWLR”, -1.33; with “HMDESIPVITYKDSVYANPKAFADAHKLPYKSLHNALSKARKEGKVRFMYKQYNFHLDNNGYIVAVS”, -1.22. The same measure for “HMDESLLDYALREIKARIQNGTYPPGTKLSTQEISDSLGISRTPVVAAINRLVAQGVAEAIPRRGTIVAR”: -0.19. In the case of “HMDETFTITFDPNGGTLNGSKTKTVSLGDIVYGKLPTASKTGYSFIGWFTEKEGGEQISSATKIIASDLTL”, the “soluble fraction (log2)” value came to 0.0518. On to “HMDETPESIFAKANELYPKYIKYFYTEQEYYSKVEEYINLYEFQKNSTYILGKDLEEFLEEYITNKQ”, for which the “soluble fraction (log2)” value was -1.61. The same measure for “HMDEWDDGDKPKLKITLYADDDYYFASGFSKSSVSLSGSDGTVTSVSRSSSDTLIVYVTLDALD”: 0.033. With “HMDEYILTLDEVKELLKSKDYDDLKNVLKWSNKFQKDTIIQTAISEKVSDANVINIIKEITGQDITSLIV” the figure was -0.0278; with “HMDEYTREQFVADMEEGRVREVTIHPNSEVPTGYIRVELANGADMKLYVTDIVEAEELVRSYGFDPPVRDV”, 0.212; with “HMDFDFHALGREIKRKRKDKGWTQEYLAQLLDRTPRSIMYMENRGQHPSLNILFKIATLLEISIDQFFF”, -0.114. The same measure for “HMDFDQELFDKIVEATMDEARAAMDTDDKNVREERWNKLIEHWHELFLEDYPEMDKYLEEITYKFQKNPAT”: -0.662; for “HMDFEVGTVKWFNTKKGYGFITRDQGEDIFVHFRNIKGQGRRSLSDGERVSFVVTHGDKGLQADQVSP”: -1.25; for “HMDFFTAAPEEDEIGKRIDVYIAEYKEELSRSRVQKLIENGLVTVNGKAVKSNYKLRKGDILEVEIPDPE”: -0.0998. For “HMDFGPDSAAPLADGSAPEGFDVKGNADSMLYHEPDGRWYDATVAEVWFRTAEAAQAAGFTKAGS”, the “soluble fraction (log2)” value is -0.119. As to “HMDFNNQLKRIRESNGLTQEQLAKILNVSRQSISSWEVGRNFPDLEMIVIISKEFNISLDQLIMG”, the “soluble fraction (log2)” value was -3.02. The same measure for “HMDFQTDVFISRFAELKKESGETNKDLQDVFELSLSALINYQTGKRIPDIAFLHKLAQHFGVSADYLLGLS”: -0.277; for “HMDFRQALNTSADSDANKVALLESIVKGKYVSSTVNLLRRVITLRRGRSIDATLAAYSHYVSIR”: 0.155. As for “HMDFSVTIKGTSFPVMVSLKKMKQVRLKVFPSGEIKLSAPVGTPEKWIVEYLNDKMSWIEEKMDLFVQ”, the “soluble fraction (log2)” value is -1.26. With “HMDFTMSEIQTAMAALPRGYRTVVQLYLVDGYSHKEIAEMLGVDVNTSKSQLSRGRKQLQAFLAAMS” the figure was -0.152; with “HMDFYIVLGVDRAASVSDVKRAYRRLARKYHPDINPGDREAEAFFLRVTEAYETLIDPDRRQDYDVNG”, -1.06. With “HMDFYPARVKWFNKSKGFGFANIFKSNDDIFLHIETLKRSGLSDLETGEAIVLTVTEGPRGKMADTILTWD” the figure was -0.531; with “HMDGDFGMNLDWQPSEHFPTLARQAGIPADHITAEAIAEFRSYWIGQGKAMTQYQWDHKLLTNLKATKTR”, -1.19. The same measure for “HMDGEAQTYVEYGKWFPADLPLEAVRQLADGVPVTKELVAALNPRRSEWEEIKAGLDKIGYPNELL”: -0.0206; for “HMDGEITLYKVVGYIKASDFDDKKNGFVIADDYITKRQAEDTMYEWKRKKTYPYLEIKEYKGKDPYK”: 0.255. Take “HMDGLAEQLFNILREELESGDYKPGQKLMSESALAQKYGVSRLTVRAAIARLSALDYVETRNGEGSFVKKR”: the “soluble fraction (log2)” value is -1.78.

“HMDGLDFIINENGKIANINEEGELLAKGENIMLGYYKDSISTNNTINNGWLHTGDIAKIDNDGFIYL”: the “soluble fraction (log2)” value was -0.0909. The same measure for “HMDGMNEELYQKFFALVGNPDEGKRISQAKAAQALGYSSAVVSAYKNRTYNGNIKAFEDAVQAWLKREERR”: 0.17; for “HMDGPELYESMKAIVPDQLDRTIFLTGGAYTPRAQEFLARVPNQQMEKPFEFEALRSLLARLT”: 0.128; for “HMDGTEVTTEPPGAQVEYEGKQFGPTPARIPGLVAGKSLHITLPGYLEVKPKIKAVPKDGEPLSFTLTAI”: -0.0613. The same measure for “HMDGVEVVTKPAGAQIEFAGKSYGPSPVHIPGLVAGSQLILRLPGFQAATVRLRTAPDKSKALEYTLQPA”: -0.278; for “HMDGVLVYKEGMTVADMATGLGKTIAQVVMKLMQLGIMANQNQSVDRETVELVALDFGYELKD”: -2.27. The same measure for “HMDGVSAEAVKSHIKTLIDGEGAKILSDDTLVDLLNAKGFDIARRTVAKYREAMGIGSSVQRRRQKKMG”: 0.00787.
